Reference: patent publication US20050186197A1
Positions of bridges follow the written chain, without caps; N, C: chain ends. No end group written: not given here.

Key:
[1] = biological target: class C β-lactamase P99 from Enterobacter cloacae (Enterobacter cloacae) (UniProt P05364); test: β-lactamase inhibition assay (cephalosporin C)
TEM-1 β-lactamase = TEM-1 β-lactamase (UniProt P62593); test: β-lactamase inhibition assay (cephalosporin C)
[2] = biological target: T1, TEM-1 β-lactamase, P62593; test: ratio of Ki values, β-lactamase inhibition assay
T1 chain: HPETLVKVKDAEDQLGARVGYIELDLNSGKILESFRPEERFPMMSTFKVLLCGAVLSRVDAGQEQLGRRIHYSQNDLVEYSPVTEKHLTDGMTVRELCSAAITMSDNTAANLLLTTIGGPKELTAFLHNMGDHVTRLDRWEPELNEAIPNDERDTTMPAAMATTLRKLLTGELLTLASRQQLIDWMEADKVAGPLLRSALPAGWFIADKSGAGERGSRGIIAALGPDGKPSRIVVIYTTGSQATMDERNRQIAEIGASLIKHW

[3] = biological target: T2, class C β-lactamase P99 from Enterobacter cloacae (Enterobacter cloacae), P05364; test: β-lactamase inhibition assay (cephalosporin C), Ki from IC50 by Cheng-Prusoff
T2 sequence (P05364 21-381 limits assumed): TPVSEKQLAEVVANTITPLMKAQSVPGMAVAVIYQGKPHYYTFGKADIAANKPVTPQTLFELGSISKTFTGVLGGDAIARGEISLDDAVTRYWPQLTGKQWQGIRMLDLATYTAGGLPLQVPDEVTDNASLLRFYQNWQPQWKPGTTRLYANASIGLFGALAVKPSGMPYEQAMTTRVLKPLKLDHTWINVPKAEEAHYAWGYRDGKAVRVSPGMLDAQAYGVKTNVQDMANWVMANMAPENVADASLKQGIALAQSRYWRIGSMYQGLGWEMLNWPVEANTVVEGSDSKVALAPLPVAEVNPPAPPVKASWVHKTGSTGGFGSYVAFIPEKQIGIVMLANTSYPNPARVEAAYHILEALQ

[4] = biological target: T1, TEM-1 β-lactamase, P62593; test: as above
[5] = biological target: T1, TEM-1 β-lactamase, P62593; test: β-lactamase inhibition assay, disulfide-bonded peptide
[6] = biological target: T2, class C β-lactamase P99 from …; test: ratio of Ki values, β-lactamase inhibition assay

In the case of RR-NH2 (peptide), the Ki [1] is reported as greater than 2000 µM and the Ki (TEM-1 β-lactamase) is reported as greater than 2000 µM.

In the case of HSAYSDTRRGDYG-NH2 […-NH2], the fold increase in binding affinity relative to the cysteine peptide …-NH2 [2] is reported as 10 fold, the Ki [3] is reported as 254 µM and the Ki [4] is reported as 298 µM.

For HSACSDTRRGDCG-NH2 (disulfide 4-12 (inferred)) […-NH2 (disulfide-bonded soluble peptide)], the Ki [5] was 3500 µM.

In the case of RRGHYY-NH2 [RRGHYY-NH2], the fold improvement in affinity relative to disulfide bonded …-NH2 [2] is reported as 25 fold, the fold improvement in affinity relative to …-NH2 [2] is reported as 2 fold and the Ki [3] is reported as 140 µM. It also gave a Ki [4] of 136 µM.

AAGHYY-NH2 [AAGHYY-NH2] showed a fold increase in Ki relative to RRGHYY-NH2 [6] of 3 fold, a fold increase in Ki relative to RRGHYY-NH2 [2] of 3 fold and a Ki [3] of 468 µM. The Ki [4] was 438 µM.
